In one data set the target is T1, NDP52(1-126) (human, UniProt Q13137 1-126).
T1 sequence (looked up): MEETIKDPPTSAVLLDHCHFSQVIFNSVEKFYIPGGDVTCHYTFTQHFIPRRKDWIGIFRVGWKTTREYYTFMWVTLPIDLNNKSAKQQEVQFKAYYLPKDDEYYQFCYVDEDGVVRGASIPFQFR
The experiment in a line: ITC.

Data set [1] has as its target T2, NDP52(10-126) (human, UniProt Q13137 10-126).
T2 sequence (looked up): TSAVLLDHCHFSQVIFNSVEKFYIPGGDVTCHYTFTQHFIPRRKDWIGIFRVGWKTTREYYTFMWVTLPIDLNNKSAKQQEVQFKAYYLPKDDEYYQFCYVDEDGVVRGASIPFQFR
As to the kind of experiment: crystal structure.

Data set [2] concerns the target T2, NDP52(10-126). The experiment in a line: AUC.
The target in another data set is T3, NDP52(1-126) T39E (human, UniProt Q13137 1-126, T39E).
T3 sequence (looked up): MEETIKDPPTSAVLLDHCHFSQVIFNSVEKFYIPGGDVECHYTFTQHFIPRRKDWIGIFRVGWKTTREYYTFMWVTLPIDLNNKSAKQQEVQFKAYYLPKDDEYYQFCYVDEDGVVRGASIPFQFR
As to the kind of experiment: ITC.

The next data set has as its target TAX1BP1(1-121) S25E (human, UniProt Q86VP1 1-121, S25E). The experiment in a line: ITC.
In another data set the target is T4, NDP52(10-126) F20Q (human, UniProt Q13137 10-126, F20Q).
T4 sequence (looked up): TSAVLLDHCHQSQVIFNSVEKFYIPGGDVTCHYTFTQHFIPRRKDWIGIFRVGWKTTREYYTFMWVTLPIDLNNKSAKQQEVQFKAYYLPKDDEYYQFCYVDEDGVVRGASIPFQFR
As to the kind of experiment: ITC.

For the next data set, the target named is TAX1BP1(1-121) (human, UniProt Q86VP1 1-121). The experiment in a line: ITC.
Sequence of TAX1BP1(1-121) (Q86VP1 1-121): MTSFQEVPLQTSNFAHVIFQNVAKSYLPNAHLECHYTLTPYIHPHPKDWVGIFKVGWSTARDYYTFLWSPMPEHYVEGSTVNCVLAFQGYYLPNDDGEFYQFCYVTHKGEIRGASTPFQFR
The data set “AUC” deals with the molecule itself. The experiment in a line: AUC.

Sequence of TAX1BP1(1-121) S25E (Q86VP1 1-121 S25E): as the sequence (Q86VP1 1-121) above, with S25E counted along it

B1: NAP1(1-85) (domain or fragment, human, UniProt Q9H6S1 1-85, looked up)
chain: MDALVEDDICILNHEKAHKRDTVTPVSIYSGDESVASHFALVTAYEDIKKRLKDSEKENSLLKKRIRFLEEKLIARFEEETSSVG
In the case of B1, in the data set with NDP52(1-126), the Kd was around 1.49 µM.
ESVASHFALVTAYEDIKKRLKDSEKENSLLKKRIRFLEEKLIA (domain or fragment, human, UniProt Q9H6S1 33-75, looked up) [NAP1(33-75)]: the “stoichiometry N” value with NDP52(10-126) [1] was 1 NDP52 chains per NAP1 chain (2:2); with NDP52(10-126) [2] it was 2 NDP52(10-126) molecules per NAP1(33-75) dimer; in the data set “AUC” it was 2. Moreover, the binding result with NDP52(1-126) T39E, with TAX1BP1(1-121) S25E and with NDP52(10-126) F20Q was “binds” in each case. Further, the Kd with NDP52(1-126) is around 1.15 µM; with TAX1BP1(1-121), around 2.05 µM.

B2: NAP1(1-75) (domain or fragment, human, UniProt Q9H6S1 1-75, looked up)
chain: MDALVEDDICILNHEKAHKRDTVTPVSIYSGDESVASHFALVTAYEDIKKRLKDSEKENSLLKKRIRFLEEKLIA
As to B2, in the data set with NDP52(1-126), the Kd was around 1.8 µM.

These data come from paper doi:10.1101/264085 (bioRxiv, 2018).
